From patent US20030224972A1

Target: MC1-R
Test: cell-based or functional assay

Recombinant mouse agouti signal protein (from UniProt Q03288 23-131) (ligand)
inhibits activation of the MC1-R: 220 pM
